Measured values published in paper PMC12507091, “The CsWRKY50-CsREM1-CsTSⅠ module inhibits theanine biosynthesis in tea plants under drought stress”.

T1: CsREM1-GST (Camellia sinensis)
T1 chain: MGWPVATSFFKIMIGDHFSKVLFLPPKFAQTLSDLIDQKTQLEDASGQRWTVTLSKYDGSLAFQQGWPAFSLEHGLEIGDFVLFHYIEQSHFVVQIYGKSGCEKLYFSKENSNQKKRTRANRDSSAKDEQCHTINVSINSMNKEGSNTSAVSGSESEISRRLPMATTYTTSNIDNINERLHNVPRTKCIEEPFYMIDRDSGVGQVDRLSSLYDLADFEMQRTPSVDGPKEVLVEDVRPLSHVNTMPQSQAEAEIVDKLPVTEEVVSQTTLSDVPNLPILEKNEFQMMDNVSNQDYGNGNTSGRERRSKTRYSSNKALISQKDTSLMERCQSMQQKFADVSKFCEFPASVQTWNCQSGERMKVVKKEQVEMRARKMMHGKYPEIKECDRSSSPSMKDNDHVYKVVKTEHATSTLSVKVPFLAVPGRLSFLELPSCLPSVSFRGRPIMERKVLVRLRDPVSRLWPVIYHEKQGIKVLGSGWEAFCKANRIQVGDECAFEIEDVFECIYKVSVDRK

B1: CsTSI promoter Probe-2 (dsDNA)
DNA 1: TTACAACATGCTACACAGACTCGTAAA
DNA 2: TTTACGAGTCTGTGTAGCATGTTGTAA
B2: CsTSI promoter Probe-1 (dsDNA)
DNA 1: TATGTAATTTTATGTAGAGTTATACAT
DNA 2: ATGTATAACTCTACATAAAATTACATA
B3: CsREM1 promoter Probe (dsDNA)
DNA 1: TTTTGTCTATGTTTTGACTTACTAATAATT
DNA 2: AATTATTAGTAAGTCAAAACATAGACAAAA

Key:
CsREM1-GST = target: T1, CsREM1-GST; test: EMSA; not stated (EMSA protocol per Zhu et al. 2024); conditions: protein: recombinant; tags: GST (pGEX-4T, N-terminal by vector); blunt
CsWRKY50-GST = CsWRKY50-GST (Camellia sinensis); test: as above; conditions: protein: recombinant; tags: GST (pGEX-4T, N-terminal by vector); blunt
Sequence of CsWRKY50-GST (Camellia sinensis) (chain, as listed by the source): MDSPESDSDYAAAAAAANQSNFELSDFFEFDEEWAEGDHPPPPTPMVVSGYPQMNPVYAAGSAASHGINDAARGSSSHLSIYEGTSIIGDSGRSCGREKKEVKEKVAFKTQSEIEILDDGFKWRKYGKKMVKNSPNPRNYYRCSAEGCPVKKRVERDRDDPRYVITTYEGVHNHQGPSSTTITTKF

Binder	binding result (CsREM1-GST)	binding result (CsWRKY50-GST)
B1	binds	
B2	binds	
B3		binds
